In the supplement of paper PMC9732359:
± gives the uncertainty stated by the source.

Test: protein stability index of a GFP-peptide fusion (yeast GPS) (PSI 1-4); higher = more stable; sorted into four equal gates, so the index is relative within each strain
How it was run: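 The protein stability index of a peptide was calculated by multiplying its read frequency in each gate by that gate's number and adding the products. The peptides were tiled 17-residue stretches of yeast proteins, fused downstream of GFP on a Cherry-expressing plasmid and carried in yeast as a pooled library. Mid-log cultures in leucine-free medium were sorted into four equal gates by GFP/Cherry ratio, and each gate's plasmids were PCR-amplified and Illumina-sequenced.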

| Sequence | protein stability index (doa10∆) | protein stability index (pdr5∆) | protein stability index (san1∆) | protein stability index (ubr1∆) |
| --- | --- | --- | --- | --- |
| ISLLKNRRKQSFVLNKN [RPN4] | 3.52 ± 0.25 | 3.06 ± 0.25 | 3.04 ± 0.15 | 3.21 ± 0.14 |
| LQYLPLYAVSTFENTNN [SIR4] | 1.82 ± 0.038 | 1.71 ± 0.042 | 1.41 ± 0.057 | 2.31 ± 0.046 |
| CVQLIKCLVEKSICFEN [SWI1] | 2.49 ± 0.25 | 2.61 ± 0.25 | 2.28 ± 0.17 | 2.74 ± 0.15 |
| KLLIQIDELSNGQRSNS [SMC1] | 2.42 ± 0.16 | 2.59 ± 0.11 | 3.14 ± 0.1 | 3.11 ± 0.16 |
| LSCQYDNTVRTSANGIV [RPO31] | 1.32 ± 0.19 | 1.26 ± 0.14 |  |  |
| CSFITQDKMFVSNPIRK [FAS1] | 1.37 ± 0.081 | 1.3 ± 0.073 | 1.25 ± 0.11 | 1.22 ± 0.042 |
| MSANGFAADGDALVKRF [PRE7] | 3.35 ± 0.26 | 3.4 ± 0.23 | 2.9 ± 0.21 | 3.41 ± 0.053 |
| PHIQKMLSILEIFKKGY [POP6] | 2.42 ± 0.11 | 2.73 ± 0.099 | 3.1 ± 0.091 | 2.54 ± 0.066 |
| YMLIEEAASSNKSFIVD [ITC1] | 2.96 ± 0.078 | 2.91 ± 0.06 | 2.78 ± 0.041 | 2.9 ± 0.049 |
| KTNFQDVILDYQTKKFY [REC8] | 1.62 ± 0.072 | 1.59 ± 0.051 | 1.16 ± 0.096 | 1.24 ± 0.039 |
| DQLSTISMILRNISFSD [SWI1] | 1.85 ± 0.052 | 2.44 ± 0.072 | 2.04 ± 0.069 | 2.31 ± 0.051 |
| LGLYVGVDDQILATNSL [YJL039C/NUP192] | 2.64 ± 0.092 | 3.06 ± 0.12 | 2.3 ± 0.11 | 1.73 ± 0.16 |
| TYDMVGGLTKQIKEIKE [RPT6] | 2.26 ± 0.15 | 2.52 ± 0.17 | 1.89 ± 0.23 | 2.56 ± 0.08 |
| VAALVSLTEKFSQTVAD [ECM29] | 2.77 ± 0.08 | 1.61 ± 0.059 | 1.8 ± 0.14 | 1.67 ± 0.085 |
| MSSEIAYSNTNTNTENE [SNF11] |  |  | 2.64 ± 0.24 | 3.04 ± 0.2 |
| IDPDTKAPNAVVITFEK [RPB11] |  | 3.22 ± 0.17 | 3.09 ± 0.094 | 2.93 ± 0.15 |
| ESKDSIQDLIVKLKQQK [SMC3] | 3.35 ± 0.1 | 3.12 ± 0.13 | 3.09 ± 0.14 | 3.35 ± 0.15 |
| NSFYYTSLLYLSTLEPS [RPN9] | 1.82 ± 0.05 | 1.56 ± 0.046 | 1.47 ± 0.1 | 1.77 ± 0.041 |
| VEDDLVTVQTELNEEKK [SMC2] | 3.23 ± 0.16 | 2.55 ± 0.078 | 2.55 ± 0.08 | 2.85 ± 0.087 |
| GEIGDFFSSDWRFLQIL [POP1] | 2.73 ± 0.089 | 2.79 ± 0.09 | 2.94 ± 0.066 | 2.55 ± 0.093 |
| TRNSNNLAIVELVRLLI [BRR2] | 2.56 ± 0.06 | 2.29 ± 0.049 | 2.53 ± 0.066 | 2.4 ± 0.049 |
| IELNFDAVKDFKLGKFN [QCR2] | 3.31 ± 0.26 | 2.69 ± 0.17 | 3.31 ± 0.093 | 3.71 ± 0.25 |
| ETTLGEMAEKIDFTLLN [PRP8] | 3.12 ± 0.093 | 3.17 ± 0.1 | 3.19 ± 0.098 | 2.71 ± 0.082 |
| SHDKKTKCSTVVKASEL [SRP14] | 3.02 ± 0.18 | 3.46 ± 0.22 | 3.05 ± 0.17 | 3.33 ± 0.11 |
| LDTFIKIDGNPDELIKA [PRE5] | 3.19 ± 0.12 | 3.19 ± 0.12 | 3.31 ± 0.071 | 3.36 ± 0.079 |
| IPGMSNMMNQVGEEETS [SRP54] |  |  | 2.14 ± 0.29 |  |

| Sequence | protein stability index (doa10∆) | protein stability index (pdr5∆) | protein stability index (san1∆) | protein stability index (ubr1∆) |
| --- | --- | --- | --- | --- |
| TTESNSRLKALNLQFKA [YLR335W/NUP2] | 3.25 ± 0.11 | 3.04 ± 0.064 | 3.15 ± 0.066 | 2.98 ± 0.073 |
| AEASFTFGTKHAADSQN [YLR335W/NUP2] | 3.27 ± 0.14 | 3.01 ± 0.13 | 3.03 ± 0.092 | 2.67 ± 0.091 |
| DDVVVLTGEAEIEQPVT [FAS1] | 3.47 ± 0.12 | 3.27 ± 0.12 | 2.85 ± 0.13 | 2.98 ± 0.099 |
| LSKVFSDVLFEFTKINT [YJL039C/NUP192] | 2.87 ± 0.11 | 2.5 ± 0.068 | 2.09 ± 0.13 | 2.94 ± 0.051 |
| RERRIHVTQEDFELAVG [RPT6] | 2.38 ± 0.074 | 2.74 ± 0.06 | 2.08 ± 0.074 | 2.61 ± 0.066 |
| TAKKDMSSTTPKLESVK [SNF12] | 3.31 ± 0.056 | 3.35 ± 0.05 | 3.1 ± 0.042 | 3.27 ± 0.04 |
| EAAAVRDLSEASVYPEY [RPS26A] | 2.25 ± 0.076 | 2.53 ± 0.082 | 2.65 ± 0.076 | 2.93 ± 0.09 |
| APIPKGRVKYTKRQKHF [POP1] | 1.2 ± 0.13 | 1.9 ± 0.12 | 2.2 ± 0.13 | 1.77 ± 0.082 |
| LPDELTLSYDDISAAIV [DLS1] | 2.56 ± 0.055 | 2.53 ± 0.061 | 2.58 ± 0.073 | 2.67 ± 0.05 |
| YNNRKCWPKDSRMRLIR [PRP8] | 2.05 ± 0.09 | 2.13 ± 0.12 | 2.19 ± 0.11 | 2.64 ± 0.14 |
| EASSLGYLDDSEILIIS [IRR1] | 2.1 ± 0.048 | 1.85 ± 0.037 | 1.91 ± 0.1 | 1.87 ± 0.036 |
| QDKIELSEEETLLVIRR [SNF2] | 2.38 ± 0.11 | 2.27 ± 0.11 | 2.92 ± 0.072 | 2.98 ± 0.089 |
| IEKARVEAQSHRLTLED [PRE6] |  |  |  | 3.26 ± 0.15 |
| TTFEYIIKERALLSKVK [SNF2] | 1.58 ± 0.046 | 1.67 ± 0.048 | 1.41 ± 0.071 | 1.37 ± 0.036 |
| NSIKNVPPILIILPLDN [SSN2] | 2.01 ± 0.21 | 1.61 ± 0.11 |  | 1.82 ± 0.068 |
| DCENFFNYVQECPAIPI [YJL039C/NUP192] | 2.49 ± 0.075 | 2.93 ± 0.064 | 3.23 ± 0.069 | 2.99 ± 0.05 |
| GDLASLVLLNGRLRNKS [RPP1] | 2.83 ± 0.054 | 2.85 ± 0.041 | 2.83 ± 0.04 | 2.81 ± 0.038 |
| AAPSGNYKQLTLVGGGA [RRP43] | 1.36 ± 0.093 | 2.33 ± 0.07 | 2.23 ± 0.13 | 2.5 ± 0.079 |
| DSTSHNNGSSDKSLDSS [MED1] | 3.04 ± 0.062 | 3.11 ± 0.067 | 3.08 ± 0.07 | 3.08 ± 0.046 |
| QNAKLLANLIRDALRNI [RRP6] | 2.17 ± 0.055 | 2.18 ± 0.062 | 2.36 ± 0.084 | 2.23 ± 0.043 |
| SIMPDLYFYRNPEEVEQ [RPS0B] | 2.86 ± 0.082 | 2.95 ± 0.077 | 2.94 ± 0.063 | 2.85 ± 0.06 |
| NKTKAVDNTVPSTTLFN [YOR098C/NUP1] | 2.84 ± 0.087 | 2.58 ± 0.067 | 3.04 ± 0.054 | 3.15 ± 0.055 |
| SNAAGADDAISMHLLKD [SRB8] | 3.17 ± 0.1 | 2.49 ± 0.065 | 3.07 ± 0.099 | 2.76 ± 0.055 |
| MIIFLKNYDATDKPFSS [CSI1] | 2.63 ± 0.059 | 2.85 ± 0.062 | 2.92 ± 0.05 | 2.92 ± 0.048 |
| NGILPDDELMNWRRLSG [SSN2] | 2.97 ± 0.087 | 2.9 ± 0.073 | 2.98 ± 0.11 | 3.19 ± 0.091 |
| NTHNKSTKRVTKHPSLK [POP7] | 2.6 ± 0.07 | 2.78 ± 0.062 | 2.67 ± 0.044 | 2.72 ± 0.046 |
